One molecule from publication PMC3761943 (Cell, 2013) can be followed below.

The series “SEC” deals with the molecule itself. Nature of the series: SEC. In general terms: In gel filtration, larger molecules generally elute earlier.
Series [1] addresses T1, kinesin-4ΔN (human kinesin-4, aa 733-1232) (human, UniProt O95239 733-1232).
T1 sequence (looked up): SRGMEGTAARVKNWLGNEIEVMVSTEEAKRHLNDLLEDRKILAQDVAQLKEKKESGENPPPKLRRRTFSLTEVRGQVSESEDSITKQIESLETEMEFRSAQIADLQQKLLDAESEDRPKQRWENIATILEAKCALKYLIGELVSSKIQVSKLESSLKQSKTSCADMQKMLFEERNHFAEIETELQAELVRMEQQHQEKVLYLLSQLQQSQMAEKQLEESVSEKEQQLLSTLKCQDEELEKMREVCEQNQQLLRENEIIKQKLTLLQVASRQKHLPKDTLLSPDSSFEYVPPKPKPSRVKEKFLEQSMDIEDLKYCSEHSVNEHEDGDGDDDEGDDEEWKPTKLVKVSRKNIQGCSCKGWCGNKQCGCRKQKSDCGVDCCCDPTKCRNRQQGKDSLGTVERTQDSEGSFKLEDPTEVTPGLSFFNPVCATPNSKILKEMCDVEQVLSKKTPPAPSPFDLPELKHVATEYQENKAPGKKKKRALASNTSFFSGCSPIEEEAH
Nature of the series: pull-down.

The term stoichiometry N denotes the number of molecules, sites or subunits per partner or assembly. A word on the Kd: it is a measure of binding affinity in units of concentration. Higher therefore signals lower affinity.

B1: PRC1ΔN1SΔC (human PRC1, aa 19-486) (domain or fragment, UniProt O43663 19-486, looked up)
chain: LNHLREIWELIGIPEDQRLQRTEVVKKHIKELLDMMIAEEESLKERLIKSISVCQKELNTLCSELHVEPFQEEGETTILQLEKDLRTQVELMRKQKKERKQELKLLQEQDQELCEILCMPHYDIDSASVPSLEELNQFRQHVTTLRETKASRREEFVSIKRQIILCMEALDHTPDTSFERDVVCEDEDAFCLSLENIATLQKLLRQLEMQKSQNEAVCEGLRTQIRELWDRLQIPEEEREAVATIMSGSKAKVRKALQLEVDRLEELKMQNMKKVIEAIRVELVQYWDQCFYSQEQRQAFAPFCAEDYTESLLQLHDAEIVRLKNYYEVHKELFEGVQKWEETWRLFLEFERKASDPNRFTNRGGNLLKEEKQRAKLQKMLPKLEEELKARIELWEQEHSKAFMVNGQKFMEYVAEQWEMHRLEKERAKQERQLKNKKQTETEMLYGSAPRTPSKRRGLAPNTPGKAR
B1: in “SEC”, the “stoichiometry N” value came to 2. In series [1], the equilibrium dissociation constant (Kd) worked out at 210 ± 10 nM.
